The text below walks through data of patent US20220088131A1, “COMPOSITIONS AND METHODS RELATING TO C5L2” (King's College London, priority 2013, published 2022).

For assay [1], the system named is CD14+ monocytes. As to the kind of experiment: Pro-inflammatory cytokine release by monocytes (CBA). Particulars: resting and Flagellin-stimulated monocytes; 36 hours; dRA 7 μM, PMX53 10 μM; FIG. 9. In kind it is cell-based, human. The procedure: FIG. 9. C5L2 blockade induces pro-inflammatory cytokine release by human monocytes. CD14+ monocytes (2.5×10^5) were cultured for 36 hours and supernatants assayed for cytokines using CBA. Monocytes were treated with either C5aR/C5L2 double receptor antagonist (dRA; 7 μM), C5aR antagonist (PMX53; 10 μM) or control (non-treated). The effect of antagonist treatment was assessed on non-activated monocytes (white bars) as well as monocytes activated with 1 μg/ml of either Flagellin (light grey bars) or 100 ng/ml LPS (dark grey bars). Data represent n=4 experiments with SEM indicated. Statistical testing was not conducted as insufficient experimental repeats were performed to assume normal distribution. Asterisk denotes that the median value was 10,400 pg/ml.
Human blood was obtained from healthy volunteers following ethical guidelines set by Kings College London (KCL) ethics committee (REC: 09/H0804/72). PBMCs were isolated by density centrifugation (Ficoll-Paque PLUS; GE healthcare, Uppsala, Sweden). […]
(§1) The Th1/Th2/Th17 Cytometric Bead Array (BD Bioscience) was used to quantify cytokine production by CD4^+ T cells and monocytes following 12 or 36 h culture under distinct activation conditions. […] IL-1β amounts secreted into the cell media were measured by ELISA, according to the manufacturer's protocol (R&D Systems, Abingdon, UK).

Assay [2] relates to CD4+ T cells. As to the kind of experiment: TGF-β receptor chain expression in CD4+ T cells. Format: cell-based, human. To be noted: FIG. 16. The method, then: FIG. 16. C5L2 regulates TGF-β receptor chain expression in CD4+ T cells.
Results described above indicate that C5L2-mediated signals actively contribute to the negative regulation of human Th1 and Th17 responses. To further define C5L2-activated signaling events in CD4+ T cells, gene, miRNA and methylation arrays were performed using T cells from the C5-deficient patient and T cells activated in the presence of the dRA. […] It is believed that TGF-β is important for IL-17 production but also IFN-γ suppression. TGF-β receptor signaling via autocrine TGF-β production has been implicated as required for control of Th1 responses and prevention of autoimmunity in certain experimental models (Ishigame, et al., Proc Natl Acad Sci USA. (2013) 110(17):6961-6). It was of interest to examine whether C5L2-mediated signals regulate autocrine TGF-β production, TGF-β receptor signaling, or both.

Assay [3] concerns CD14+ monocytes. As to the kind of experiment: IL-1β secretion by monocytes (ELISA). To be noted: resting and LPS-activated (100 ng/ml, 12 h) monocytes; FIG. 8. Format: cell-based, human. The procedure:
(§2) FIG. 8. Effect of C5L2 blockage on IL-1β secretion by resting and activated CD4+ T cells and by monocytes. […] CD4+ T cells were isolated and left non-activated or CD3/CD46-activated as described (with or without addition of the C5aR/C5L2 double antagonist, dRA, 7 μM) and IL-1β secretion into the media measured at 24 h post activation using an ELISA. CD14+ monocytes (2.5×10^5) were left non-activated or activated with 100 ng/ml LPS for 12 h and supernatants assayed for IL-1β by ELISA. Data represent n=3 experiments with SEM for the CD4+ T cells and n=1 for monocytes (conditions were performed in duplicate and shown are the median values of each condition).
(§3) Human blood was obtained from healthy volunteers following ethical guidelines set by Kings College London (KCL) ethics committee (REC: 09/H0804/72). PBMCs were isolated by density centrifugation (Ficoll-Paque PLUS; GE healthcare, Uppsala, Sweden). Cell subsets were isolated by magnetic separation following manufacturer's instructions (Miltenyi Biotec, Auburn, Calif.). […]
as §1
A general note: In an ELISA, binding on a coated surface is turned into a signal by an enzyme label.

The test system of assay [4] is human CD4+ T cells. As to the kind of experiment: IL-1β secretion by CD4+ T cells (ELISA). In kind it is cell-based. To be noted: resting and activated (CD3/CD46) CD4+ T cells; dRA 7 μM; 24 h; FIG. 8. The procedure: as §2, §3, §1

B1: A8delta71-73: Dual C5aR/C5L2 receptor antagonist; C5a variant A8 (C27A, H67F, D69R, M70S, Q71L, G73R, Arg74 deleted) lacking amino acids 71-73 (protein)
chain: TLQKKIEEIAAKYKHSVVKKCCYDGAAVNNDETCEQRAARISLGPRCIKAFTECCVVASQLRANISFKRS
Consider B1, for which the “secretion of IL-6” value in assay [1] is given as “promoted secretion”. In assay [2], the “expression of TGF-β receptor chains” value is on record as “increased expression”. Moreover, the IL-1β secretion entry in assay [3] and in assay [4] was “increased IL-1β secretion” in each case.
